Measurements reported in patent publication US20230340555A1, “PRODUCTION OF GLYCOSYLATED CANNABINOIDS” (WILLOW BIOSCIENCES, INC., priority 2020, published 2023).

B1: At5g49690: UDP-glycosyl transferase from Arabidopsis thaliana, amino acid sequence SEQ ID NO: 18 (protein, listed as Arabidopsis thaliana)
chain: MVDKREEVMHVAMFPWLAMGHLLPFLRLSKLLAQKGHKISFISTPRNIERLPKLQSNLASSITFVSFPLPPISGLPPSSESSMDVPYNKQQSLKAAFDLLQPPLKEFLRRSSPDWIIYDYASHWLPSIAAELGISKAFFSLFNAATLCFMGPSSSLIEEIRSTPEDFTVVPPWVPFKSNIVFRYHEVTRYVEKTEEDVTGVSDSVRFGYSIDESDAVFVRSCPEFEPEWFGLLKDLYRKPVFPIGFLPPVIEDDDAVDTTWVRIKKWLDKQRLNSVVYVSLGTEASLRHEEVTELALGLEKSETPFFWVLRNEPKIPDGFKTRVKGRGMVHVGWVPQVKILSHESVGGFLTHCGWNSVVEGLGFGKVPIFFPVLNEQGLNTRLLHGKGLGVEVSRDERDGSFDSDSVADSIRLVMIDDAGEEIRAKAKVMKDLFGNMDENIRYVDELVRFMRSKGSSSSS
B2: SrUGT76G1: UDP-glycosyl transferase from Stevia rebaudiana, amino acid sequence SEQ ID NO: 20 (protein, listed as Stevia rebaudiana)
chain: MENKTETTVRRRRRIILFPVPFQGHINPILQLANVLYSKGFSITIFHTNFNKPKTSNYPHFTFRFILDNDPQDERISNLPTHGPLAGMRIPIINEHGADELRRELELLMLASEEDEEVSCLITDALWYFAQSVADSLNLRRLVLMTSSLFNFHAHVSLPQFDELGYLDPDDKTRLEEQASGFPMLKVKDIKSAYSNWQILKEILGKMIKQTRASSGVIWNSFKELEESELETVIREIPAPSFLIPLPKHLTASSSSLLDHDRTVFQWLDQQPPSSVLYVSFGSTSEVDEKDFLEIARGLVDSKQSFLWVVRPGFVKGSTWVEPLPDGFLGERGRIVKWVPQQEVLAHGAIGAFWTHSGWNSTLESVCEGVPMIFSDFGLDQPLNARYMSDVLKVGVYLENGWERGEIANAIRRVMVDEEGEYIRQNARVLKQKADVSLMKGGSSYESLESLVSYISSL
B3: AtUGT71 D1: UDP-glycosyl transferase from Arabidopsis thaliana, amino acid sequence SEQ ID NO: 8 (protein, listed as Arabidopsis thaliana)
chain: MRNVELIFIPTPTVGHLVPFLEFARRLIEQDDRIRITILLMKLQGQSHLDTYVKSIASSQPFVRFIDVPELEEKPTLGSTQSVEAYVYDVIERNIPLVRNIVMDILTSLALDGVKVKGLVVDFFCLPMIDVAKDISLPFYVFLTTNSGFLAMMQYLADRHSRDTSVFVRNSEEMLSIPGFVNPVPANVLPSALFVEDGYDAYVKLAILFTKANGILVNSSFDIEPYSVNHFLQEQNYPSVYAVGPIFDLKAQPHPEQDLTRRDELMKWLDDQPEASVVFLCFGSMARLRGSLVKEIAHGLELCQYRFLWSLRKEEVTKDDLPEGFLDRVDGRGMICGWSPQVEILAHKAVGGFVSHCGWNSIVESLWFGVPIVTWPMYAEQQLNAFLMVKELKLAVELKLDYRVHSDEIVNANEIETAIRYVMDTDNNVVRKRVMDISQMIQRATKNGGSSFAAIEKFIYDVIGIKP

How the values were obtained:
[1] = cited from earlier work
[2] = test system: bacterial strain BL21 (DE3); assay: CBDA depletion in BL21 (DE3) strains expressing UGTs (UHPLC-MS); format: cell-based; details: 0.1 mM CBDA, induced with 100 µM IPTG for 4h at 37° C. vs controls without induction
Source text: The following cDNAs encoding UGTs from Arabidopsis thaliana, Cannabis sativa and Helianthus annuus UGTs were cloned into pDONOR-zeo (as described in Example 1) and then recombined into the prokaryotic expression vector pDEST14: AtUGT73C6 (SEQ ID NO: 3), AtUGT88A1 (SEQ ID NO: 5), AtUGT71 D1 (SEQ ID NO: 7), AtUGT73B4 (SEQ ID NO: 9), AtUGT76C4 (SEQ ID NO: 11), AtUGT76E12 (SEQ ID NO: 13), and At5g49690 (SEQ ID NO: 17), CsUGT73C6 (SEQ ID NO: 15), HaUGT76G1L (SEQ ID NO: 1), and SrUGT76G1 (SEQ ID NO: 19). Host cells from the bacterial strain BL21 (DE3) were transformed individually pDEST14 vector.
A BL21 (DE3) single colony was inoculated in liquid media and incubated at 37° C. overnight. The bacterial cultures were diluted to a final 0.6 OD and CBDA was added to a final concentration of 0.1 mM. The cultures were split, and half was induced with 100 µM IPTG for 4h at 37° C. to express the UGTs and the other half was kept as controls without induction of UGT expression.
Subsequently, samples were treated with a 1:1 volume of acetonitrile for 15 minutes at 250 RPM. After 30 minutes centrifugation at 4,000 RPM, samples were diluted 1000-fold in the same solvent for further analysis.
CBDA depletion was assayed employing UHPLC-MS analysis. The instrument used was a Thermo Vanquish UHPLC connected to a Thermo TSQ Altis mass spectrometer. The UHPLC consists of a vacuum degasser, a ternary pump, a thermostated autosampler held at 5° C., and a thermostated column compartment. An Accucore C18 (150 × 2.2 mm, 2.6 µm, Thermo, USA) was used. The mobile phase is water with 0.1 % formic acid (A) and acetonitrile with 0.1 % formic acid (B) on a linear gradient (see Table 5). The flow rate was set at 0.800 mL/min. The column temperature was set at 30° C. The sample injection volume was 1 µL.
MS analyses were carried out in order to ensure the identity of the peaks and were performed on a Thermo TSQ Altis triple quadrupole mass spectrometer using electrospray ionization in negative mode. Compounds were analyzed using selected reaction monitoring using two ion pairs for quantitation and confirmation respectively.

[3] = test system: CN3 yeast strain host cells; assay: Detection of glycosylated cannabinoids and cannabinoid precursors in yeast cells expressing UDP-glycosyl transferase (HPLC-MS); format: cell-based; set-up: key to CBDA-glc / OLA-glc / CBGA-glc / CBGA-(glc)2 / CBD-glc / CBD-(glc)2 / OLA-(glc)2 / CBGA-glucuronic acid: (+) represents the lowest detected quantities; (++), (+++), and (++++) signify relative increasing intermediate detected levels; (++), (+++), and (++++) signify relative increasing intermediate detected levels; (++), (+++), and (++++) signify relative increasing intermediate detected levels; (+++++) represents the highest detected quantities; No detectable levels of a glycosylated cannabinoid compound or glycosylated cannabinoid precursor compound are indicated by “n.d.”; details: for production of glycosylated cannabinoids or cannabinoid precursor compounds: pellet or supernatant of recombinant yeast host cells transformed with the UGT; for CBD-glc: 0.5 g/L CBD
How it was run: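 CN3 yeast host cells carrying a heterologous UDP-glycosyl transferase gene were grown overnight in YPD, then diluted into YPG to OD600 = 0.2 and shaken at 600 RPM and 28° C. Cell pellets and supernatants were extracted for 1 hour in 80 % Acetonitrile/20 % Methanol, centrifuged at 12,000 RPM, filtered (0.22 µm), and checked for glycosylated cannabinoids and precursors by HPLC and negative-mode ESI QToF HPLC-MS.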

[4] = 20 h growth, detected in PELLET, 0.05 mM hexanoic acid

Molecule	solubility in water [1]	decrease in CBDA content [2]	CBDA-glc [3, 4]	production of glycosylated cannabinoids or cannabinoid precursor compounds [3]	CBGA-glc [3, 4]	OLA-glc [3, 4]	CBD-glc ([3]; 20 h growth, detected in PELLET)	OLA-glc ([3]; 20 h growth, detected in SUPERNATANT, 0.2 mM hexanoic acid)	CBD-glc ([3]; 20 h growth, detected in SUPERNATANT)
CCCCCc1cc(O)c2c(c1)OC(C)(C)C1CCC(C)=CC21 (centres unmarked) [Δ^9-THC, Δ^9-tetrahydrocannabinol]	less than 0.01 mg/ml								
B1		9%	+	detected					
B2		21%		No production					
B3		9%	++	detected	+	++	+++	++	+++
